In article PMC12412103, “An Amyloidogenic Fragment of the Spike Protein from SARS-CoV‑2 Virus Stimulates the Aggregation and Toxicity of Parkinson’s Disease Protein Alpha-Synuclein” (ACS Chemical Neuroscience, 2025):

Biological target: mS194 (Spike 194–203 monomer) (Severe acute respiratory syndrome coronavirus 2, UniProt P0DTC2)

Substance	effect of fAβ on mS194 aggregation	increase of ThT fluorescence intensity of mS194 versus mS194 alone [fold]
fAβ1–42	acceleration of mS194 aggregation	
fAβ25–35 (GSNKGAIIGLM; Amyloid-beta protein 42 fibrillar; UniProt P05067 696-706, looked up, fragment)	acceleration of mS194 aggregation	4
